Columns and labels:
HLA-A*0201 [1] = biological target: T1, HLA-A*0201 (human); test: iTopia binding;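 further: each peptide tested for binding to HLA-A2 molecules immobilized on plates, using a commercial screening kit run per its supplied protocol and reagents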
T1 construct: also called HLA-A2.1; HLA A2.1

HLA-A*0201 [2] = biological target: T1, HLA-A*0201; test: iTopia affinity;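 further: peptide affinity for plate-bound HLA-A2 molecules (iTopia system), with ED50 derived from an eight-point serial peptide dilution series run under binding assay conditions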
HLA-A*0201 [3] = biological target: T1, HLA-A*0201; test: iTopia off-rate;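 further: Half-life of peptide complexes with plate-bound HLA-A2, peptides loaded 18 h at 21 C, washed, then held at 37 C over several time points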
HLA-A*0201 [4] = biological target: T1, HLA-A*0201; test: iTopia net score;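 further: combined score from peptide binding, ED₅₀ and half-life of peptide complexes with plate-bound HLA-A2 molecules, computed by a proprietary formula in iTopia software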

Binder	binding vs positive control (HLA-A*0201 [1]) [%]	ED50 (HLA-A*0201 [2]) [µM]	t1/2 (HLA-A*0201 [3])	iScore (HLA-A*0201 [4])
SQVEELKSS [cdr2 131-139 SQVEELKSS]	> 30	11	2.42	0.154
QAQLSLERQ [cdr2 206-214 QAQLSLERQ]	> 30	8.1	3.42	0.174
SLLEEMFLT [cdr2 289-297 SLLEEMFLT]	> 30	6	13.9	0.803
TMEEEYGLV [cdr2 218-226 TMEEEYGLV]	> 30	6.3	1.27	0.166
HLQSQVEEL [cdr2 128-136 HLQSQVEEL]	> 30	10	7.7	0.323
KLVPDSLYV [cdr2 273-281 KLVPDSLYV]	> 30	3	6.1	0.499
LKSSGQGRR [cdr2 136-144 LKSSGQGRR]	> 30	16	2.38	0.176
LGATGAYRA [cdr2 237-245 LGATGAYRA]	> 30	10	1.2	0.13
QSLLEEMFL [cdr2 288-296 QSLLEEMFL]	> 30	30	5.44	0.178
LSLTETIEC [cdr2 113-121 LSLTETIEC]	> 30	0.95	0.51	0.187
FVYDHVFAE [cdr2 171-179 FVYDHVFAE]	> 30	10	5.5	0.282
VTMEEEYGL [cdr2 217-225 VTMEEEYGL]	> 30	2	6.5	0.528

Second part, the binder after the results:

binding vs positive control (HLA-A*0201 [1]) [%]	ED50 (HLA-A*0201 [2]) [µM]	t1/2 (HLA-A*0201 [3])	iScore (HLA-A*0201 [4])	Binder
> 30	4	1.9	0.244	LASVNPEPV [cdr2 405-413 LASVNPEPV]
> 30	4	0.8	0.129	SLSHKAVQT [cdr2 373-381 SLSHKAVQT]
> 30	1	7	0.752	RGISLLHEV [cdr2 341-349 RGISLLHEV]
> 30	17	1.38	0.15	EMFLTVPES [cdr2 293-301 EMFLTVPES]
> 30	3	6.5	0.469	AAAKDLTGV [cdr2 384-392 AAAKDLTGV]
> 30	10	6.4	0.292	GVNAQSEPV [cdr2 391-399 GVNAQSEPV]
> 30	9	6.3	0.262	DSLSHKAVQ [cdr2 372-380 DSLSHKAVQ]
